Like-named read-outs stand apart in the source and are kept apart here. One block for each substance: values may come before it.
Tests used:
[1] = target: C5a receptor C5aR (CD88) on human blood neutrophils (human) (UniProt P21730); test: cell-based or functional assay
[2] = target: C5a receptor C5aR (CD88) on human blood neutrophils (human) (UniProt P21730); test: cell-based or functional assay; remark: listed apart in the source
[3] = target: recombinant human C5a (rhC5a) (human) (UniProt P01031)
Chain of recombinant human C5a (rhC5a) (human) (P01031 678-751 limits assumed): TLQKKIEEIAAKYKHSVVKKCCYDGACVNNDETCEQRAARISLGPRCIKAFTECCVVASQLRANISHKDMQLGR

Chain of C5a receptor C5aR (CD88) on human blood neutrophils (human) (P21730 whole entry): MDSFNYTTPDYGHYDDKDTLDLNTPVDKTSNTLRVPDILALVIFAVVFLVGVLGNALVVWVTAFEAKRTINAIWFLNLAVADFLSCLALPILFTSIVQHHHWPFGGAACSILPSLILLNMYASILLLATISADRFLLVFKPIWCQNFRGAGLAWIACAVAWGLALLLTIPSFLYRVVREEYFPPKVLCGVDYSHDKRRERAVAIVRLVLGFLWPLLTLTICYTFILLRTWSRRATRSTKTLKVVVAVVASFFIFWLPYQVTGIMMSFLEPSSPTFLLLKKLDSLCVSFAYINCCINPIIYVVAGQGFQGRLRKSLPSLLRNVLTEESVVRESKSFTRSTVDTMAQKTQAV

Substance: PMX-53 (peptide)
Blocking activity (%) on CD11b upregulation; Pat. 088 | PMX 53 (50 nM) [1]: 55.5%
Blocking activity (%) on CD11b upregulation; Pat. 092 | PMX 53 (50 nM) [1]: 56.7%
Blocking activity (%) on CD11b upregulation; huPP | rhC5a | PMX 53 (50 nM) [1]: 50.3%
CD11b (mean MFI) on neutrophils; Pat. 088 | PMX 53 (50 nM) [1]: 4730 MFI
CD11b (mean MFI) on neutrophils; Pat. 092 | PMX 53 (50 nM) [1]: 4660 MFI
CD11b (mean MFI) on neutrophils; huPP | rhC5a | PMX 53 (50 nM) [1]: 4240 MFI
Blocking activity (%) on CD11b upregulation; Pat. 088 | PMX 53 (20 µM) [2]: 104%
Blocking activity (%) on CD11b upregulation; Pat. 092 | PMX 53 (20 µM) [2]: 109%
Blocking activity (%) on CD11b upregulation; huPP | rhC5a | PMX 53 (20 µM) [2]: 108%
CD11b (mean MFI) on neutrophils; Pat. 088 | PMX 53 (20 µM) [2]: 2030 MFI
CD11b (mean MFI) on neutrophils; Pat. 092 | PMX 53 (20 µM) [2]: 1910 MFI
CD11b (mean MFI) on neutrophils; huPP | rhC5a | PMX 53 (20 µM) [2]: 1850 MFI

Substance: irrelevant human IgG4 antibody
blocking activity (%) of rhC5a-induced CD11b upregulation on neutrophils, human whole blood, flow cytometry; bar 'IgG4 control : rhC5a = 1:1' against rhC5a (16.7 nM) alone [3]: 7%

Substance: recombinant human C5a (rhC5a) (from UniProt P01031 678-751) (ligand)
CD11b (mean MFI) on neutrophils; huPP | rhC5a (20 nM) [1]: 6330 MFI
CD11b (mean MFI) on neutrophils; huPP | rhC5a (20 nM) [2]: 8330 MFI

The next lines start with the values.

Blocking activity (%) on CD11b upregulation; Pat. 088 | Clone 7H110 (50 nM) [1]: 75.7%
Blocking activity (%) on CD11b upregulation; Pat. 092 | Clone 7H110 (50 nM) [1]: 78.7%
Blocking activity (%) on CD11b upregulation; huPP | rhC5a | Clone 7H110 (50 nM) [1]: 70.7%
CD11b (mean MFI) on neutrophils; Pat. 088 | Clone 7H110 (50 nM) [1]: 3560 MFI
CD11b (mean MFI) on neutrophils; Pat. 092 | Clone 7H110 (50 nM) [1]: 3390 MFI
CD11b (mean MFI) on neutrophils; huPP | rhC5a | Clone 7H110 (50 nM) [1]: 3380 MFI
Substance: anti-C5aR (CD88) antibody Clone 7H110

Blocking activity (%) on CD11b upregulation; Pat. 088 | Clone S5/1 (50 nM) [1]: 72.7%
Blocking activity (%) on CD11b upregulation; Pat. 092 | Clone S5/1 (50 nM) [1]: 75.9%
Blocking activity (%) on CD11b upregulation; huPP | rhC5a | Clone S5/1 (50 nM) [1]: 73%
CD11b (mean MFI) on neutrophils; Pat. 088 | Clone S5/1 (50 nM) [1]: 3740 MFI
CD11b (mean MFI) on neutrophils; Pat. 092 | Clone S5/1 (50 nM) [1]: 3560 MFI
CD11b (mean MFI) on neutrophils; huPP | rhC5a | Clone S5/1 (50 nM) [1]: 3290 MFI
Substance: anti-C5aR (CD88) antibody Clone S5/1
